This note sets out measurements from the nanobody polyreactivity screen of Harvey et al. (2022).

A short description of the series: yeast display, Sf9 membrane polyspecificity reagent, FACS + sequencing; frameworks hold sequencing errors. The method in brief: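 Synthetic nanobody libraries on Saccharomyces cerevisiae BJ5465 were galactose-induced for 36–48 hours, stained 1 hour at 4 °C with 10% biotinylated, detergent-solubilized Sf9 membrane reagent and enriched on streptavidin microbeads. FACS then separated cells into low and high (top ~1%) gates by anti-HA (expression) and streptavidin (reagent binding) fluorescence. Genes were colony-PCR amplified, MiSeq 2 × 250 sequenced and CDR-length filtered. A clone's polyreactivity label is that of its gate of origin.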
Consider “QDQLVESGGGLVQAGGSLRLSCASSGFTFYVYAMGWYRQAPGKERELVAAISRSGSRTYYADSVKGRVTISRDNAQKTVYLQMNSLKPEDTAVYYCARVRPRGLYFVLHYDYWGQGTQVTVSS”, for which the “polyreactivity (PSR sort gate)” value is reported as “high polyreactivity”.

Regarding “QVQLVESGGCLVQAGGSLRYSCAASGRTFRYYGMGWYRQAPGKERELVAAISWSGGSTYYADSVKGRFTISRDNAKNTVYLQMNSLKPEDTAVYYCKVAFHWQRFHHKSAAYDYWGQGTQVTVSS”, the “polyreactivity (PSR sort gate)” value is “high polyreactivity”.

In the case of “QVQLVESGGGLVQAGGSLRLSCAASGTIFGGYGRGWYRQAPGKERELVAAITSGSSTYYADSVKGRFTISRDNAKNTVYLQMNSLKPEDTAVYYCAARPFPHSAYEGDYWGRGTQVTVSS”, the “polyreactivity (PSR sort gate)” value is “low polyreactivity”.

As to “QVQHVESGGGLVQAGGSLRLSCAASGLTFYDYAMGWYRQAPGKERELVADIDFNGGSTSYADSVKGRFTISRDNAKNTVYLQMNSLKPEDTAVYYCAARIHGSWSFDYWGQGTQVTVSS”, the “polyreactivity (PSR sort gate)” value is “low polyreactivity”.

“QVQLVESGGGLVQAGGSLRLSCAASGFTFSGHTMGWSRQAPGKERELVATISRTGGITYYADSVKGRFTISRDNAKNTVLLQMNSLKPEDTAVYYCNRRYYYFVYPDDYWGQGTQVTVSS”: the “polyreactivity (PSR sort gate)” value is reported as “high polyreactivity”.

Turning to “QVQLVESGGGLVQAGGSLRLSCAASGRIFVGYAMGWYRQAPGKERELVAAISRGGSTNYADSVKGRFTISRDNAKNTVYLQMNSLKPDDTAVYYCAKTYRTRWWGNGGDYWGQGTQVTVSS”, the “polyreactivity (PSR sort gate)” value is “high polyreactivity”.

In the case of “QVQLVESGRGLVQAGGSLRLRCASSGRTFSSYAMGWSRQAPGKARELVAAITKRGGNTYYADSVKGRFTISRDNAKNTVYLQMNSLNPEDTAVYYCAAGWERFRNYNYWGQVTQVTVSS”, the “polyreactivity (PSR sort gate)” value is given as “high polyreactivity”.

In the case of “QVQLVESGGGLVQAGGSLRLSCAASGRIFRGYVMGWYRQAPGKERELVAITIGAGRTYYADSVKGRFTISRDNAKNTVYLQMISLKPEDTAVYYFAVRLYANSGRFDYWGQGTQVTVSS”, the “polyreactivity (PSR sort gate)” value is “low polyreactivity”.

For “QVQLVESGGGLVQAGGSLRLSCAASGYTFEYYAMGWYRQAPGKERELVAAISWSGGDTYYADSVKGRFTISRDNAKNTVYLQMNSLKPEDTAVYYCNADLYNYFYYANWYGAYDYWGQGTQVTVSS”, the “polyreactivity (PSR sort gate)” value is listed as “low polyreactivity”.

Consider “HVQLVESGGGLVQAGGSLRLSCDASGRTFYRYVIGWYRQAPGKERELVAAISKSDGSSYYADSVKGRFTISRDNAKNTVYLQMNSLKPEDTAVYYCAAQYPTFYSPRPFNYWGQGTQVTVSS”, for which the “polyreactivity (PSR sort gate)” value is “high polyreactivity”.

Turning to “QVQLVESGGGLVQAGGSLRLRCAASGRIFRKYAMGWYRQAPGKERELVAAITSGGSTYYADSVKGRFTISRDNAKNTVYLQMNSLKPEDTAVYYCAAFYRGGDYWGQGTQVTVSS”, the “polyreactivity (PSR sort gate)” value is “high polyreactivity”.

In the case of “QDQLVESVGGLVQAGGSLRLSCAPTGSTFYGYGLAWSRQSPGKARELVAAITGSGDTTYYADSVKGRFTISRDYANNTVYLQMNSLKPEDTAVYYCNARWHAEYDYWGQGTQVTVSS”, the “polyreactivity (PSR sort gate)” value is recorded as “low polyreactivity”.

On to “QVQLVESGGGVVQAGGSLRLSCAASGRTFYRYAMGWYRQAPGKERELDAAISWRGGSTRYADSVKGRFTISRDNAKNTVYFQMNSLKPEDTAVYSCATRSTYWGWSSYGMDHWGQGTQVTVSS”, for which the “polyreactivity (PSR sort gate)” value was “high polyreactivity”.

Consider “QVQLVESGGGLVQAGGSLRLSCAASGSTFRPYVMGWYRQAPGKERELVAAISWRGGTTYYADSVKGRFTISRDNAKNTVYLQMNSLKPEDTAVYYCAARGDQGVPVARRYDYWGQGTQVTVSS”, for which the “polyreactivity (PSR sort gate)” value was “high polyreactivity”.

“QVQLVESGGGLVQAGGSLRLSCAASGFTFPWYAMGWYRQAPGKERELVASISYRGDSTYYSDSVKGRFTISRDNAKNTVYLQMNSLKPEDTAVYYCADDYLWYNYAGQVDHDYDYWGQGTQVTVSS”: the “polyreactivity (PSR sort gate)” value is on record as “low polyreactivity”.

For the sequence “QDQLVESGGGLVQAGGSLRLSCSASGFTITHNAMGWYRQAPGKEREFVATISRSGGRTYYADSVKGRFTISRDNAKNTVFFQMNSLKPEDTPVYYCAARTSGYWYSYGSWGQGTQVTVSS”, the “polyreactivity (PSR sort gate)” value is “high polyreactivity”.

Turning to “QVQLVESGGGLVQAGGSLRLSCAASGRTFYVYAMGWYRQAPGKERELVAAITKNGGNTYYADSVKGRFTISRDNAKNTVYLQMNSLKPEDTAVYYCAADKQGFLISYTGYDYWGQGTQVTVSS”, the “polyreactivity (PSR sort gate)” value is listed as “low polyreactivity”.

Regarding “QVQLVESGGGLVQAGGSLRLSCAASGIIIYDYAMGWYRHAPGKERELVAAISRSGGSTYYADSVKGRFTISRDNAKYTVYLQMNSLKPDDTAVYYCNADEVVWGYNYWGQGTQVTVSS”, the “polyreactivity (PSR sort gate)” value is given as “low polyreactivity”.

Consider “QVQLVESGGGLVQAGGSLRLSFAASGITFSLYVMGWYRQAPGKERELVAAISYRGGTTYYADSVKGRFTISRDNAKNTVYLQMNSLKPEDTAVYYCAARGSRDRQEAEYGYWGQGTQVTVSS”, for which the “polyreactivity (PSR sort gate)” value is “high polyreactivity”.

“QVQLVESGAGLVQAGGSLRLSCAASGSTFESNTMGWYRQAPGKERELVAAISYSGGRTYYADSVKGRFTISRDNAKNTVYLQMNSLKPEDTAVYYCNADLYPYYWYTTGEFGYWGQGTQVTVSS”: the “polyreactivity (PSR sort gate)” value was “high polyreactivity”.

As for “QVQLVESGGGLVQAGGSLRLSCAASGSIFYLNAMGWYRPAPGKERELVAAIRWSGGSTRYADSVKGRFTISRDNAKITVYLQLNSLKPEDTAVYSCAADTYVYTLGRYYYWGQGTQVTVSS”, the “polyreactivity (PSR sort gate)” value is “high polyreactivity”.

As for “QVQLVESGGGLVQAGGSLRLSCAASGSTFRRNTMGWYTQAPGKERELVAGISSSGGSTYYADSVKGRFTISRDNAKNTVYLQMNSLNPEDTAVYYCDARFYVSYVGYNYWGHGTQVTVSS”, the “polyreactivity (PSR sort gate)” value was “high polyreactivity”.

With “QVQLVESGGGLVQAGGSLRLSCAASGNIFSSNDMGWYRQAPGKQRELVAANTRSGGSTYYADSVKGRFTISRDNAKNTLYIQMNSHTPEDTAVYDGAGRPYPRNSWGYDDWGQGTQVTVSS”, the “polyreactivity (PSR sort gate)” value is listed as “high polyreactivity”.

Regarding “QVQLVESGGGLVQAGGSLRLSCAASGSTSQTYAMGWYRQAPGKERELVASMTRSGVRTYYADSVKGRFTISRDNAKYTVYLQMNSLKPEDTAVYYCAAKYSYGFYRTGYYWGQGTQVTVSS”, the “polyreactivity (PSR sort gate)” value is recorded as “high polyreactivity”.

Consider “QVQLVESGGGLVQAGGSLRLSCAASGSIFARYVMGWYRQAPGKERELVAAISRGGRTKYADSVKGRFTISRDNAKNTVYLQMNSLKPEDTAVYYCAASGSQPDDYWGQGTQVTVSS”, for which the “polyreactivity (PSR sort gate)” value is “high polyreactivity”.

In the case of “QVQLVESGGGLVQAGGSLRLSCAASGIIFDYNAMGWYRQAPGKERELVAAITWSGSSTFYADSVKGRFTISHDNAKNTVYLLMNSLKPEDTAVYYCNAEYYWGTYANFDYWGQGTQVTVSS”, the “polyreactivity (PSR sort gate)” value is reported as “low polyreactivity”.

Take “QVQRVESRGGLVQAGGSLRLTCAASGRTFWRYVMGWYRQAPGKERELVATISSGGSTNYAYSVKGRFTISRDNAKNTVYLQMNSLKPEDTAVYYSAAYIYDGVWVYPYYPYDYWGQGTQVTVSS”: the “polyreactivity (PSR sort gate)” value was “low polyreactivity”.

For the sequence “QVQLVESGRGLVQAGGSLRLSCAASGRIFLYYAMGWYRQAPGKEREFVAAITYIGGSTYYADSVKGRFTISRDNAKNTVYLQMNSLKPEDTAVYWGQGTQVTVSS”, the “polyreactivity (PSR sort gate)” value is on record as “low polyreactivity”.

For the sequence “QVQLVESGGGLVQAGGSLRLSCAASGRTFAYYVMGWYIQAPGTERELVAAISWSAGCTYYADSVKGRFTISRDNAKNTVYLQMNSLIPEDTAVDYCAADYRFRYEYWGQGTQVTVSS”, the “polyreactivity (PSR sort gate)” value is reported as “low polyreactivity”.

With “QVQLVESGGGLVQAGGSLRLSCAASGRTFWSNGMGWYRQAPGKERELVASISTSGGRTYYADSVKGRFTISRDNAKNTVYLQMNSLKPEDSAVYYCAARTVYRGRAYDYWGQGTQVTVSS”, the “polyreactivity (PSR sort gate)” value is “high polyreactivity”.
